Experiments:
[1] = target: FcγRIIIb (human) (UniProt O75015); test: SPR; His-tagged or myc-myc His-tagged Fcγ receptors captured (about 200 RU) on anti-histidine antibody on a CM4 or CM5 chip; inhibitor with or without equimolar VEGF165 or VEGF121 injected (1 µM in Table 1); Biacore 3000, 25 °C, HBS-T pH 7.4; only kd and t1/2 calculated
[2] = target: FcγRIIb (human) (UniProt P31994); test: as above
[3] = target: FcγRI (human) (UniProt P12314); test: as above
[4] = target: FcγRIIa (131R allele) (human) (UniProt P12318); test: as above
[5] = target: FcγRIIIa (176F) (human) (UniProt P08637); test: as above
Chain of FcγRIIIa (176F) (human) (P08637 17-254): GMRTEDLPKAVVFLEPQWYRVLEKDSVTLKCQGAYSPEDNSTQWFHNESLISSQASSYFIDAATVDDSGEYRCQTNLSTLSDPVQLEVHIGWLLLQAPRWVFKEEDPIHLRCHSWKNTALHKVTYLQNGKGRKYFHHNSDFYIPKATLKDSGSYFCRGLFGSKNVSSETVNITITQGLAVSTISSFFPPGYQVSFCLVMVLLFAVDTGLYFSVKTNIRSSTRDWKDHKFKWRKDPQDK

[6] = target: FcγRIIIa (176V) (human) (UniProt P08637); test: as above
Chain of FcγRIIIa (176V) (human) (P08637 17-254 F176V): as the sequence (P08637 17-254) above, with F160V counted along it

[7] = target: VEGF165 (human); test: SEC-MALS; inhibitor and ligand mixed at molar ratios 5:1 to 1:5 (20 µM and 100 µM), 12 h at ambient temperature; free proteins injected separately; Superose 12 10/300 GL, 10 mM phosphate, 500 mM NaCl, pH 7.0, 0.3 mL/min
[8] = target: T1, PlGF-2 (UniProt P49763); test: as above
T1 sequence: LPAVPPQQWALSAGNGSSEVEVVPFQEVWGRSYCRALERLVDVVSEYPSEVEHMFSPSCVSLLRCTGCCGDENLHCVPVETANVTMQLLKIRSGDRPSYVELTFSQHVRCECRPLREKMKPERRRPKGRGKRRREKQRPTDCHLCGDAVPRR

Chain of FcγRIIIb (human) (O75015 17-200): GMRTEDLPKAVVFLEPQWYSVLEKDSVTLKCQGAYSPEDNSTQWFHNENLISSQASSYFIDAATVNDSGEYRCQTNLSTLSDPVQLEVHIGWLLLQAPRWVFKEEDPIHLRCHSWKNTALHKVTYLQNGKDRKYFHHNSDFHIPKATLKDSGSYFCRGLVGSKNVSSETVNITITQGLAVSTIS
Chain of FcγRIIb (human) (P31994 43-217): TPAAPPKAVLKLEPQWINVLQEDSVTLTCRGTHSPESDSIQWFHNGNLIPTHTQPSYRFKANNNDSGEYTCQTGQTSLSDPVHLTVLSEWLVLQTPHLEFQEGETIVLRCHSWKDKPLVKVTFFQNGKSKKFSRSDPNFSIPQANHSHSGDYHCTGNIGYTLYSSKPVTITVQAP
Chain of aflibercept (Fc fusion) (chain): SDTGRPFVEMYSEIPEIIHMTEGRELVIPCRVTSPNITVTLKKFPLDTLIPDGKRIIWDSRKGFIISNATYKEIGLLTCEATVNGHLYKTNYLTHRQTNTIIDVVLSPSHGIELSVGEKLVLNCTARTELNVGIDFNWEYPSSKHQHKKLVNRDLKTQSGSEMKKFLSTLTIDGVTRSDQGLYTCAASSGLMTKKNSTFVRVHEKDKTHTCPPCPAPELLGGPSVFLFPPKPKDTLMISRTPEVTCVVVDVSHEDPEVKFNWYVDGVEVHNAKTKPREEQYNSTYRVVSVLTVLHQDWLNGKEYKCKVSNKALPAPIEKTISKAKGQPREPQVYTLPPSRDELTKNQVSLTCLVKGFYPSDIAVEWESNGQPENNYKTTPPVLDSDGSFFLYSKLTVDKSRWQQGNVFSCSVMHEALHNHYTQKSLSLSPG
Chain of FcγRI (human) (P12314 16-292): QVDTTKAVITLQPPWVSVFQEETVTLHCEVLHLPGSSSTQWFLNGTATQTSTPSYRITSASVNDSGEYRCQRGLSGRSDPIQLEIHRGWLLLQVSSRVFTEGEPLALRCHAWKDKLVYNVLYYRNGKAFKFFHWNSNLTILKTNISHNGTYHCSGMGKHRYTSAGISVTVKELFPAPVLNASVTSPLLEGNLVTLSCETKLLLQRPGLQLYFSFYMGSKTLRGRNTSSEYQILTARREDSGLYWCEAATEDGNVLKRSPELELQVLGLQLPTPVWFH

Row | Substance | t1/2 [1] | t1/2 [2] | t1/2 [3] | koff [1] | koff [4] | t1/2 [4] | koff [5] | t1/2 [5] | koff [2] | koff [6] | t1/2 [6] | koff [3] | stoichiometry N (aflibercept per VEGF165 dimer) [7] | stoichiometry N (aflibercept per PlGF-2 dimer) [8] | stoichiometry N [7]
1 | bevacizumab:VEGF121 complex | 4.42 min | 6.33 min | 57 min |  |  |  |  |  |  |  |  |  |  |  | 
2 | aflibercept:VEGF165 complex | 0.0667 min | 0.0667 min | 18.7 min | 0.164 s⁻¹ | 0.205 s⁻¹ | 0.05 min | 0.0392 s⁻¹ | 0.3 min | 0.174 s⁻¹ | 0.00614 s⁻¹ | 1.88 min | 0.000617 s⁻¹ |  |  | 
3 | VEGF165 (ligand) |  |  |  |  |  |  |  |  |  |  |  |  |  |  | 2

More lines, now with the values ahead:

Row | t1/2 [1] | t1/2 [2] | t1/2 [3] | koff [1] | koff [4] | t1/2 [4] | koff [5] | t1/2 [5] | koff [2] | koff [6] | t1/2 [6] | koff [3] | stoichiometry N (aflibercept per VEGF165 dimer) [7] | stoichiometry N (aflibercept per PlGF-2 dimer) [8] | stoichiometry N [7] | Substance
4 | 7.72 min | 11.8 min | 47.9 min |  |  |  |  |  |  |  |  |  |  |  |  | bevacizumab:VEGF165 complex
5 | 0.0667 min | 0.0667 min | 15.4 min | 0.196 s⁻¹ | 0.111 s⁻¹ | 0.1 min | 0.0626 s⁻¹ | 0.183 min | 0.179 s⁻¹ | 0.00803 s⁻¹ | 1.43 min | 0.000749 s⁻¹ |  |  |  | bevacizumab (antibody)
6 | 0.0833 min |  | 16.9 min |  |  | 0.0667 min |  | 0.317 min |  |  | 2.02 min |  |  |  |  | aflibercept:VEGF121 complex
7 | 0.0667 min |  | 16 min |  |  |  |  | 0.233 min |  |  | 1.52 min |  | 1 | 1 |  | aflibercept (Fc fusion)
